Molecular target: T1, L1CAM (L1 cell adhesion molecule, CD171), human (human, UniProt P32004 20-1257)
T1 construct: whole, on cells; The target sat on L1CAM-expressing cells (SCK-L1, Choi-CK, TFK-1); For the western blots it was the membrane protein fraction of those cells after SDS-PAGE; also called 막 L1CAM; membrane L1CAM
Assay: confocal microscopy of L1CAM-expressing cells treated with Ab417 (10 ㎍/mL); surface-bound antibody detected with anti-human IgG

T1 sequence (P32004 20-1257): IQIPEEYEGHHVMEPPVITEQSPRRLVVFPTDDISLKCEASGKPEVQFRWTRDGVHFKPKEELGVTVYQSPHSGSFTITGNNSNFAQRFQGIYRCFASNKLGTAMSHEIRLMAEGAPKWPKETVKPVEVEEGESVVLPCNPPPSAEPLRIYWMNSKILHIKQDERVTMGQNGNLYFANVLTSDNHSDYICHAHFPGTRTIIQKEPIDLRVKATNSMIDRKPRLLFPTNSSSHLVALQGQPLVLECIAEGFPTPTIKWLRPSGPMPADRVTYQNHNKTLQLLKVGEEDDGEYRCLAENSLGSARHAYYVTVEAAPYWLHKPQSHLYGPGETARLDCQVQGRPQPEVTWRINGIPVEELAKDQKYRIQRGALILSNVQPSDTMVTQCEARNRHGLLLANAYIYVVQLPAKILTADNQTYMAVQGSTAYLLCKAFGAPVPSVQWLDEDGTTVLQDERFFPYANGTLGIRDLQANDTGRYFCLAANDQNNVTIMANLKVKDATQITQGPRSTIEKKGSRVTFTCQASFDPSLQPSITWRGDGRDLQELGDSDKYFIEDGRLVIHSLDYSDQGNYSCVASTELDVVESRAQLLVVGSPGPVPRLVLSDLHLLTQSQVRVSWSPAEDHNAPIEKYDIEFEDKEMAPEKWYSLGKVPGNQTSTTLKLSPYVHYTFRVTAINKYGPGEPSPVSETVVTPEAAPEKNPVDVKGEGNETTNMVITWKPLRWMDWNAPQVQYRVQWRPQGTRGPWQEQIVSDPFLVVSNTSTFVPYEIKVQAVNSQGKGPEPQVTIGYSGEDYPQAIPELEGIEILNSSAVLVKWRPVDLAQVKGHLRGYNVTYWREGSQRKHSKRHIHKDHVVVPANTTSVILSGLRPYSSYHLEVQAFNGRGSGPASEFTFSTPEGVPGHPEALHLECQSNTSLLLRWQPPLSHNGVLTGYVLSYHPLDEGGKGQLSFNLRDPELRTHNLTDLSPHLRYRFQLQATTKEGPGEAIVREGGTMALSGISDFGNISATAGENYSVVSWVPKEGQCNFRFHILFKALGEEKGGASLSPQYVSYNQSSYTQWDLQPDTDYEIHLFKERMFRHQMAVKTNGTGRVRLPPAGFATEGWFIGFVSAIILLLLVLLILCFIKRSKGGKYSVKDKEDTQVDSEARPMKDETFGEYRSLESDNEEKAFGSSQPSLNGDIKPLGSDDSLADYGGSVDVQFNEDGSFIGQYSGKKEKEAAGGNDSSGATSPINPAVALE

binding result: binds
B1: Ab417 항체 (anti-L1CAM antibody Ab417) (antibody, V domains shown)
VH: EVQLVESGGGVVQPGRSLRLSCAASGFTFSRFGMHWVRQAPGKGLEWVAFISNDGSNKYYADSVKGRFTISRDNSKNTLYLQMNSLRPEDTAVYYCARGRAYGSGSLFDPWGQGTLVTVSS
VL: DIQLTQSPSSLSASVGDRVTITCRASRTISIYVNWYRQRPGKAPESLIYAASNLHSGVPSRFSGSGSGTDFTLTISSLQPEDFATYYCQQSIGRGVVTFGQGTKLEIK
notes: It is a whole antibody made in CHO-DG44 cell line #9-20 and purified on protein A. It was detected with anti-human IgG (H+L) and anti-human IgG (Fc-specific)
